In patent US20230272055A1 (Incyte, published 2023) one finds Kd, koff and kon data, which are given here for 25 molecules.

As a reminder, the Kd is the equilibrium constant for the complex coming apart. Usually koff stands for a measure of how fast the partners let go of each other. One may read the kon as the second-order rate constant of association.

Numbering of substitutions follows the chain as printed.

The experiment deals with T1, Recombinant MBP-mutCALR Type 1 fusion protein (human).
T1 construct: custom made at Cepter; also called recombinant mutCALR protein
Put plainly: SPR, IgG captured, 1:1 fit, Exp. 1. As for the experimental part: Experiment 1: Recombinant MBP-mutCALR Type 1 fusion protein was custom made at Cepter (cepterbiopartners.com). Data for the interaction of antibodies with recombinant MBP-mutCALR Type 1 fusion protein were collected at 25° C. on a Biacore 8K instrument (Cytiva, Marlborough, Mass.), and all reagents were obtained from Cytiva unless otherwise specified. The experiments were conducted using Tris-buffered saline (pH 7.2), 0.005% Surfactant P20, 1 mM CaCl₂) as running buffer. To prepare the capture surfaces, anti-human IgG (Fc) antibodies (Product #29234600) was amine-coupled onto a CM4 chip (Product #BR100534) under standard conditions using an Amine Coupling Kit (Product #BR100050). […] The kinetics parameters were obtained by applying 1:1 binding model to fit the data from multiple-cycle injection experiments using Biacore Insight Evaluation software.
In general terms: SPR reads the build-up and loss of mass on a sensor chip optically.

B1: anti-mutCALR antibody clone 37 (antibody, human IgG1, lambda, V domains shown)
VH: QVQLVQSGAEVKKPGATVKISCKVSGYSFTDYFIHWVQQAPGKGLAWVGLVDPEDGETIYAEKFQGRVTITADTSTDTAYMELSSLRSEDTAVYYCATPGGILTDPDAFDIWGQGTMVTVSS
VL: QSALTQPASVSGSPGQSITISCTGTSSDVGGYNYVSWYQQHPGKAPKLMIYDVSNRPSGVSNRFSGSKSGNTASLTISGLQAEDEADYYCSSYTSSSTFYVFGTGTKVTVLG
notes: human IgG1
On to B1, for which the Kd came out at 9.88 nM, the koff amounted to 0.00212 s⁻¹ and the kon was 215000 M⁻¹ s⁻¹.

B2: anti-mutCALR antibody clone 34 (antibody, human IgG1, lambda, V domains shown)
VH: B1 VH
VL: QSALTQPASVSGSPGQSITISCTGTSSDVGGYNYVSWYQQHPGKAPKLMIYEVSNRPSGVSNRFSGSKSGNTASLTISGLQAEDEADYYCSSYTSSSTYVFGTGTKVTVLG
notes: human IgG1
As for B2, the Kd is 2.56 nM, the koff worked out at 0.00581 s⁻¹ and the kon was 2.27e+06 M⁻¹ s⁻¹.

B3: anti-mutCALR antibody clone 33 (antibody, human IgG1, lambda, V domains shown)
VH: B1 VH
VL: QSALTQPRSVSGSPGQSVTISCAGTGSDVGGYNHVSWYQHHPGKAPKLMIYDVNKRPSGVPDRFSGSKSGNTASLTISGLQAEDEADYYCSSYIPSSTRWVFGGGTKLTVLG
notes: human IgG1
B3: the dissociation constant Kd was 16.2 nM, the koff was determined as 0.0126 s⁻¹ and the kon worked out at 775000 M⁻¹ s⁻¹.

B4: anti-mutCALR antibody clone 35 (antibody, human IgG1, lambda, V domains shown)
VH: B1 VH with K63R
VL: B1 VL with D52E, F99P
notes: human IgG1
Regarding B4, the Kd stood at 2.82 nM, the koff was found to be 0.00599 s⁻¹ and the kon is 2.13e+06 M⁻¹ s⁻¹.

B5: anti-mutCALR antibody clone 48 (antibody, human IgG1, lambda, V domains shown)
VH: EVQLVQSGAEVKKPGSSVKVSCKASGGTFSSYAISWVRQAPGQGLEWMGGIIPIFGTANYAQKFQGRVTITADESTSTAYMELSSLRSEDTAVYYCASSPLRGSGWYWHYYYGMDVWGQGTTVTVSS
VL: SYVLTQPPSVSVAPGKTARITCGGNNIGSKSVHWYQQKPGQAPVLVIYQDRKRPSGIPERFSGSNSGNTATLTISGTQAMDEADYYCQAWDSSTAVFGGGTKLTVLG
notes: human IgG1
B5: the Kd was determined as 1.64 nM, the koff is 0.000297 s⁻¹ and the kon was determined as 181000 M⁻¹ s⁻¹.

B6: anti-mutCALR antibody clone 49 (antibody, human IgG1, lambda, V domains shown)
VH: B5 VH
VL: SYELTQPPSVSVAPGKTARITCGGNNIRAKHVHWYQQKPGQSPVLVIYQDSKRPSGIPERFSGSNSGSTATLTISRVEAGDEADYYCQVWDSSTVVFGGGTKLTVLG
notes: human IgG1
Consider B6, for which the Kd turned out to be 3.61 nM, the koff is 0.000669 s⁻¹ and the kon stood at 185000 M⁻¹ s⁻¹.

B7: anti-mutCALR antibody clone 47 (antibody, human IgG1, lambda, V domains shown)
VH: B5 VH
VL: B6 VL with N26K, R28G, A29T, H31S, S42A, Q49R, K52N, S68N, V77A, E78Q
notes: human IgG1
Take B7: the Kd came to 3.62 nM, the koff is 0.000772 s⁻¹ and the kon was determined as 213000 M⁻¹ s⁻¹.

B8: anti-mutCALR antibody clone 44 (antibody, human IgG1, lambda, V domains shown)
VH: B5 VH
VL: B5 VL with V12A, T21S, G28R, P39A, R51S, S93N, A95V
notes: human IgG1
On to B8, for which the Kd was 3.84 nM, the koff came to 0.00101 s⁻¹ and the kon worked out at 263000 M⁻¹ s⁻¹.

B9: anti-mutCALR antibody clone 45 (antibody, human IgG1, lambda, V domains shown)
VH: B5 VH
VL: SYVLTQPLSVSVAPGQTARITCGGNNIGRKSVHWYQQKPGQAPVLVIYRDSNRPSGIPERFSGSNSGNTATLTISRAQAGDEADYYCQVWDSSTVVFGGGTKLTVLG
notes: human IgG1
As for B9, the Kd was 5.13 nM, the koff stood at 0.0011 s⁻¹ and the kon was 214000 M⁻¹ s⁻¹.

B10: anti-mutCALR antibody clone 52 (antibody, human IgG1, kappa, V domains shown)
VH: EVQLVQSGAEVKKPGASVKVSCKVSGYTLTELSMHWVRQAPGKGLEWMGLVDPEDGETIYAEKFQGRVTITADTSTDTAYMELSSPRSEDTAVYYCATTIGDDYFDYWGQGTLVTVSS
VL: not shown
notes: human IgG1
As to B10, the Kd was 1.76 nM.

B11: anti-mutCALR antibody clone 19 (antibody, human IgG1, lambda, V domains shown)
VH: EVQLVQSGAEVKKPGASVKVSCKVSGYTLTELSMQWVRQAPGKGLEWMGGFDPDDGETMYAEKFQGRLTVTEDTPTDTVYMELRSLTSEDTALYFCATSPGYDFFDYWGQGTLVTVSS
VL: SYVLTQPLSVSVALGQTARITCGGSNIGDIRVHWYQQKPGQAPVLVVYDDSDRPSGIPERFSGSNSGNTATLTINRVEAGDEADYYCQVWDSSNDLLIFGGGTKLTVLG
notes: human IgG1
Turning to B11, the Kd worked out at 9.04 nM, the koff came out at 0.0132 s⁻¹ and the kon worked out at 1.46e+06 M⁻¹ s⁻¹.

B12: anti-mutCALR antibody clone 22 (antibody, human IgG1, lambda, V domains shown)
VH: B11 VH with P75S
VL: B11 VL with L8P, L14P, Q16K, S25N, D29S, I30K, R31N
notes: human IgG1
In the case of B12, the Kd was determined as 12.6 nM, the koff was 0.00289 s⁻¹ and the kon came out at 229000 M⁻¹ s⁻¹.

B13: anti-mutCALR antibody clone 21 (antibody, human IgG1, lambda, V domains shown)
VH: B11 VH with K23E, P75S
VL: SYVLTQPPSVSVAPGQTARVSCGGNNIGSKSVNWYRQKPGQAPVLVIYDDSDRPSGIPERFSGSNSGNTATLTISRVEAGDEADYYCQVWDSSNDLLIFGGGTKLTVLG
notes: human IgG1
As for B13, the Kd was determined as 2.58 nM, the koff came out at 0.00664 s⁻¹ and the kon came to 2.57e+06 M⁻¹ s⁻¹.

B14: anti-mutCALR antibody clone 11 (antibody, human IgG1, lambda, V domains shown)
VH: B11 VH with Q3R, P75S
VL: QSALTQPRSVSGSPGQSVTISCTGTSSDVGGYNYVSWYQQHPGKAPKLMIYDVSKRPSGVPDRFSGSNSGNTATLTINRVEAGDEADYYCQVWDSSNDLLIFGGGTKLTVLG
notes: human IgG1
Turning to B14, the Kd was determined as 10.2 nM, the koff turned out to be 0.00524 s⁻¹ and the kon is 514000 M⁻¹ s⁻¹.

B15: anti-mutCALR antibody clone 30 (antibody, human IgG1, lambda, V domains shown)
VH: B11 VH with P75S
VL: B11 VL with L8P, L14P, Q16K, R19T, S25N, D29T, I30K, R31S
notes: human IgG1
B15: the Kd was 12.8 nM, the koff came out at 0.00295 s⁻¹ and the kon worked out at 231000 M⁻¹ s⁻¹.

B16: anti-mutCALR antibody clone 26 (antibody, human IgG1, lambda, V domains shown)
VH: B11 VH with P75S
VL: B13 VL with V20I, S21T, N33H, R36Q, I47V, N94I, L96H, L105V
notes: human IgG1
Consider B16, for which the Kd turned out to be 9.84 nM, the koff was determined as 0.00471 s⁻¹ and the kon is 478000 M⁻¹ s⁻¹.

B17: anti-mutCALR antibody clone 29 (antibody, human IgG1, lambda, V domains shown)
VH: B11 VH with P75S
VL: B13 VL with Q16K, V20I, S21T, N33H, R36Q, I47V, N94S, T103A
notes: human IgG1
Take B17: the Kd was 8.16 nM, the koff turned out to be 0.00561 s⁻¹ and the kon worked out at 688000 M⁻¹ s⁻¹.

B18: anti-mutCALR antibody clone 23 (antibody, human IgG1, lambda, V domains shown)
VH: B11 VH with P75S
VL: B11 VL with L8P, L14P, S25N, D29I, I30K, R31S
notes: human IgG1
On to B18, for which the Kd came out at 4.37 nM, the koff stood at 0.00343 s⁻¹ and the kon is 785000 M⁻¹ s⁻¹.

B19: anti-mutCALR antibody clone 20 (antibody, human IgG1, lambda, V domains shown)
VH: B11 VH with P75S
VL: B11 VL with L8P, L14P, Q16K, S25N, D29S, I30K, R31G
notes: human IgG1
Take B19: the Kd was found to be 4.46 nM, the koff worked out at 0.00498 s⁻¹ and the kon amounted to 1.12e+06 M⁻¹ s⁻¹.

B20: anti-mutCALR antibody clone 27 (antibody, human IgG1, lambda, V domains shown)
VH: B11 VH with P75S
VL: B11 VL with L8P, L14P, S25N, D29I, I30K, R31S, S51R
notes: human IgG1
Regarding B20, the Kd was determined as 9.63 nM, the koff amounted to 0.00366 s⁻¹ and the kon amounted to 380000 M⁻¹ s⁻¹.

B21: anti-mutCALR antibody clone 25 (antibody, human IgG1, lambda, V domains shown)
VH: B11 VH with P75S
VL: B11 VL with V3E, L8P, S11A, L14P, S25N, D29R, I30K, R31A
notes: human IgG1
For the molecule B21, the Kd was found to be 6.64 nM, the koff worked out at 0.00389 s⁻¹ and the kon stood at 585000 M⁻¹ s⁻¹.

B22: anti-mutCALR antibody clone 28 (antibody, human IgG1, lambda, V domains shown)
VH: B11 VH with P75S
VL: B13 VL with V3E, V20I, S21T, N33H, R36Q, I47V, S92A, S93D, N94S, L96Q
notes: human IgG1
B22: the Kd came to 19.5 nM, the koff came to 0.00897 s⁻¹ and the kon stood at 460000 M⁻¹ s⁻¹.

B23: anti-mutCALR antibody clone 24 (antibody, human IgG1, lambda, V domains shown)
VH: B11 VH with F64L, P75S
VL: B11 VL with L8P, L14P, Q16K, S25N, D29S, I30K, R31S
notes: human IgG1
As to B23, the Kd amounted to 7.62 nM, the koff was found to be 0.00199 s⁻¹ and the kon came out at 261000 M⁻¹ s⁻¹.

B24: anti-mutCALR antibody clone 38 (antibody, human IgG1, kappa, V domains shown)
VH: EVQPVQSGAEVKKPGSSVKVSCKASGGTFSSYAISWVRQAPGQGLEWMGLVDPEDGETIYAEKFRGRVTITADTSTDTAYMELSSLRSEDTAVYYCATEESYGPWGQGTLVTVSS
VL: DIQLTQSPSSLSASVGDRVTITCQASQDISNYLNWYQQKPGKAPKLLIYDASNLETGVPSRFSGSGSGTEFTLTISSLQPEDFATYYCQQLNSYPLTFGGGTKLEIKR
notes: human IgG1
For the molecule B24, the Kd is 2.1 nM, the koff came out at 0.00268 s⁻¹ and the kon stood at 1.28e+06 M⁻¹ s⁻¹.

B25: anti-mutCALR antibody clone 39 (antibody, human IgG1, kappa, V domains shown)
VH: B24 VH with P4L, R65Q
VL: B24 VL with N34D
notes: human IgG1
On to B25, for which the Kd is 5.59 nM, the koff is 0.0018 s⁻¹ and the kon came to 322000 M⁻¹ s⁻¹.
